{
  "source": "patent US20240209043A1",
  "about": "“NON-ANTIBODY BINDING PEPTIDES AND THEIR ANALOGS DUAL-TARGETING TO PD-1 AND PD-L1, AND USES THEREOF” (ORAL SUBSIDIARY SUN YAT-SEN UNIVERSITY HOSPITAL, priority 2021, published 2024)",
  "origin": "cited, not measured here",
  "molecules": {"B1": {"name": "Camrelizumab (antibody, chains of the INN, looked up, V domains shown)", "VH": "EVQLVESGGGLVQPGGSLRLSCAASGFTFSSYMMSWVRQAPGKGLEWVATISGGGANTYYPDSVKGRFTISRDNAKNSLYLQMNSLRAEDTAVYYCARQLYYFDYWGQGTTVTVSS", "VL": "DIQMTQSPSSLSASVGDRVTITCLASQTIGTWLTWYQQKPGKAPKLLIYTATSLADGVPSRFSGSGSGTDFTLTISSLQPEDFATYYCQQVYSIPWTFGGGTKVEIK", "notes": "marketed IgG4 antibody drug targeting PD-1"}},
  "molecular_target": "PD-1 (Homo sapiens, UniProt Q15116)",
  "sequence (Q15116 25-288)": "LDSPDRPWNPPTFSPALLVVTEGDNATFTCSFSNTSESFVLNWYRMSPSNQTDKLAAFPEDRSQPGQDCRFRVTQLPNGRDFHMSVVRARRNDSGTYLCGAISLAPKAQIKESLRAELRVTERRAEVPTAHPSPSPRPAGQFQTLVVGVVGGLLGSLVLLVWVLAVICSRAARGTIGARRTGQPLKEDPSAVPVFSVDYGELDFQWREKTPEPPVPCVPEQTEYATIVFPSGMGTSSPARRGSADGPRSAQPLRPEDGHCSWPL",
  "details": "background section; read-out: Kd-value of antibody drug targeting PD-1",
  "data": [
    {"molecule": "B1", "values": [
      {"measurement": "Kd", "result": 3.31, "unit": "nM"}
    ]}
  ]
}
